First the molecules themselves.
B1: KaiA from Synechococcus sp. PCC 7942 (natural protein)
chain: LSQIAICIWVESTAILQDCQRALSADRYQLQVCESGEMLLEYAQTHRDQIDCLILVAANPSFRAVVQQLCFEGVVVPAIVVGDRDSEDPDEPAKEQLYHSAELHLGIHQLEQLPYQVDAALAEFLRLAPVETMADHIMLMGANHDPELSSQQRDLAQRLQERLGYLGVYYKRDPDRFLRNLPAYESQKLHQAMQTSYREIVLSYFSPNSNLNQSIDNFVNMAFFADVPVTKVVEIHMELMDEFAKKLRVEGRSEDILLDYRLTLIDVIAHLCEMYRRSIPRET
notes: KaiA, Synechococcus sp; PCC 7942; Both N- and C-terminal domains were present in the sample, since the study locates the N-terminal domains, so it was probably whole KaiA; Hydrogenated in all samples; also called A2 (homodimer); hA (hydrogenated KaiA); source: E. coli, purified after cleavage of the his-tag
B2: phosphorylation mimic KaiC (S431 substituted with aspartate) from Synechococcus sp. PCC 7942 (natural protein)
chain: MTSAEMTSPNNNSEHQAIAKMRTMIEGFDDISHGGLPIGRSTLVSGTSGTGKTLFSIQFLYNGIIEFDEPGVFVTFEETPQDIIKNARSFGWDLAKLVDEGKLFILDASPDPEGQEVVGGFDLSALIERINYAIQKYRARRVSIDSVTSVFQQYDASSVVRRELFRLVARLKQIGATTVMTTERIEEYGPIARYGVEEFVSDNVVILRNVLEGERRRRTLEILKLRGTSHMKGEYPFTITDHGINIFPLGAMRLTQRSSNVRVSSGVVRLDEMCGGGFFKDSIILATGATGTGKTLLVSRFVENACANKERAILFAYEESRAQLLRNAYSWGMDFEEMERQNLLKIVCAYPESAGLEDHLQIIKSEINDFKPARIAIDSLSALARGVSNNAFRQFVIGVTGYAKQEEITGLFTNTSDQFMGAHSITDSHIDTITDTIILLQYVEIRGEMSRAINVFKMRGSWHDKAIREFMISDKGPDIKDSFRNFERIISGSPTRITVDEKSELSRIVRGVQEKGPES
notes: KaiC, Synechococcus sp; PCC 7942, phosphorylation mimic with S431 replaced by aspartate; A 75%-deuterated form (dC) was used in the iCM-SANS sample; Buffer contained 1 mM ATP and 5 mM MgCl2; also called C6 (homohexamer); hC; source: E. coli, purified as a Strep-tagged recombinant protein

Data set [1] deals with the molecule itself. Description: AUC-SAXS; KaiA alone, 1.0 mg/mL, 25 °C; SV-AUC at 60,000 rpm with laboratory SAXS (NANOPIX); experimental profile compared with the crystal dimer and with simulated dimers.
The target of data set [2] is T1, B6C6 complex (KaiB-KaiC complex formed beforehand and isolated by SEC) (Synechococcus sp. PCC 7942, UniProt Q79PF5 1-102; Q79PF4 1-519, S431 substituted with an aspartate residue).
T1 construct: KaiB, Synechococcus sp; PCC 7942, as m2; KaiC, Synechococcus sp; PCC 7942, phosphorylation mimic with S431 replaced by aspartate, as m3; Oversaturating KaiA was added to this purified complex; the final molar ratio [KaiA]:[KaiB]:[KaiC] was 24:12:6; In the iCM-SANS sample both chains were 75%-deuterated; also called BC complex; B6C6 subcomplex; source: E. coli proteins, purified; KaiB and KaiC …
T1 sequence 1: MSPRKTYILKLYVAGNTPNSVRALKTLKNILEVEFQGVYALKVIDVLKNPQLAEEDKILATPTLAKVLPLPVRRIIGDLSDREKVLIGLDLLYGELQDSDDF
T1 sequence 2: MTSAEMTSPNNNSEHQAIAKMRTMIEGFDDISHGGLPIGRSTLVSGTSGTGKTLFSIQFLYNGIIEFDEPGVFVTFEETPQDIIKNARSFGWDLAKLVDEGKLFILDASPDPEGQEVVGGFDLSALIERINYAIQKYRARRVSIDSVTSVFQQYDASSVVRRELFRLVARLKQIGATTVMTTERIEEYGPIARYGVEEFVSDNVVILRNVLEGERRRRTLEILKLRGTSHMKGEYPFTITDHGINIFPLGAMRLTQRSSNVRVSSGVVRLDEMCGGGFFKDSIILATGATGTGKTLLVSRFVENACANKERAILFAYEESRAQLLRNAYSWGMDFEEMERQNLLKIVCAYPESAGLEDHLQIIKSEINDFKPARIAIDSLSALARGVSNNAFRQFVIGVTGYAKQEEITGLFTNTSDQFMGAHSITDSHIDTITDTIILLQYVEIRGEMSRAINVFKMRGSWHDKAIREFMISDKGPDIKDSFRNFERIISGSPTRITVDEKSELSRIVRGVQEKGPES
Description: AUC; sedimentation velocity, Rayleigh interference optics, 60,000 rpm, 30 °C; ternary KaiA-KaiB-KaiC mixture 1.0 mg/mL (KaiA added in excess to SEC-purified B6C6, final 24:12:6); hydrogenated proteins in H2O buffer: 20 mM Tris-HCl pH 8.0, 150 mM NaCl, 5 mM MgCl2, 0.5 mM EDTA, 1 mM DTT, 1 mM ATP. Particulars: both partners purified.

Data set [3] concerns the molecule itself. The data set is described as above.
Data set [4] concerns the target B2. Description: SEC; KaiB and KaiC mixed 9:6 in 20 mM Tris-HCl pH 8.0, 150 mM NaCl, 5 mM MgCl2, 0.5 mM EDTA, 1 mM DTT, 1 mM ATP at 10 °C; complex isolated with SEC. Particulars: both partners purified. A general note: SEC sorts molecules by how far they enter the pores of the column.
The target of data set [5] is B1. Description: AUC; sedimentation velocity, Rayleigh interference optics, 60,000 rpm, 30 °C; ternary KaiA-KaiB-KaiC mixture 1.0 mg/mL (KaiA added in excess to SEC-purified B6C6, final 24:12:6); hydrogenated proteins in H2O buffer: 20 mM Tris-HCl pH 8.0, 150 mM NaCl, 5 mM MgCl2, 0.5 mM EDTA, 1 mM DTT, 1 mM ATP. Particulars: both partners purified.

The text below walks through data of article PMC8913699, “Overall structure of fully assembled cyanobacterial KaiABC circadian clock complex by an integrated experimental-computational approach” (Communications Biology, 2022).

Usually stoichiometry N stands for a count of units in the complex or per binding partner.

On to B1, for which the results for the “stoichiometry N” value in data set [1] and in data set [2] were 2 and 12 KaiA protomers per B6C6 complex, respectively.
Regarding B2, in data set [3], the “stoichiometry N” value is 6.

B3: KaiB from Synechococcus sp. PCC 7942 (natural protein, UniProt Q79PF5 1-102, looked up)
chain: MSPRKTYILKLYVAGNTPNSVRALKTLKNILEVEFQGVYALKVIDVLKNPQLAEEDKILATPTLAKVLPLPVRRIIGDLSDREKVLIGLDLLYGELQDSDDF
notes: KaiB, Synechococcus sp; PCC 7942; A 75%-deuterated form (dB) was used in the iCM-SANS sample; also called B4 (homotetramer); hB; source: E. coli, purified after cleavage of the GST-tag
B3: the binding result in data set [4] and in data set [5] was “binds” each time.
